Target: Streptavidin (UniProt P22629 P22629:25-183)
Test: no specific binding to plate; same buffer, room temp
Details: chain copies: 4
Protocol: Obtained vectors were tested for binding a streptavidin-coated plate. The amount of DNA retained on the plate was detected by pico-green incorporation assay.
DNA was mixed with streptavidin-coated plate in binding buffer for 2 h, at room temp. Plate was washed 3× with same binding buffer, and the DNA that was bound to the plate was detected with PicoGreen assay in plate, without detaching DNA. [0490] Binding buffer (10×) [0491] 1 M NaCl [0492] 20 mM MgCl2 [0493] 50 mM KCl [0494] 10 mM CaCl2) [0495] 200 mM Tris-HCl, pH 7.6

Chain of Streptavidin (P22629 25-183, one chain of several): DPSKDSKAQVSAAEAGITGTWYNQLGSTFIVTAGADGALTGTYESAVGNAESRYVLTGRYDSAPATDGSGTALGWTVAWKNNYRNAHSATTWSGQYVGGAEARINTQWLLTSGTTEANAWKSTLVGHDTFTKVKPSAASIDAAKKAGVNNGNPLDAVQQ

B1: noApt vector cap (control) (structured_DNA)
DNA: CTGCTCACCTGCCAGCTACGGACGCGGAACGCGTCCGTAGCTGGCAGGTGAGCAG
binding result: no binding
